Reference: patent US20220251171A1, “APOLIPOPROTEIN E FRAGMENTS” (EISAI R&D MANAGEMENT CO., LTD., priority 2019, published 2022)

B1: 198-299: C-terminal fragment consisting of amino acids 198-299 of human ApoE (SEQ ID NO: 3) (protein)
chain: LAGQPLQERAQAWGERLRARMEEMGSRTRDRLDEVKEQVAEVRAKLEEQAQQIRLQAEAFQARLKSWFEPLVEDMQRQWAGLVEKVQAAVGTSAAPVPSDNH
B2: 199-299: C-terminal fragment consisting of amino acids 199-299 of human ApoE (SEQ ID NO: 2) (protein)
chain: AGQPLQERAQAWGERLRARMEEMGSRTRDRLDEVKEQVAEVRAKLEEQAQQIRLQAEAFQARLKSWFEPLVEDMQRQWAGLVEKVQAAVGTSAAPVPSDNH
B3: 200-299: C-terminal fragment consisting of amino acids 200-299 of human ApoE (SEQ ID NO: 1) (protein)
chain: GQPLQERAQAWGERLRARMEEMGSRTRDRLDEVKEQVAEVRAKLEEQAQQIRLQAEAFQARLKSWFEPLVEDMQRQWAGLVEKVQAAVGTSAAPVPSDNH

Columns and labels:
[1] = system: neurotoxic 12 kDa ApoE fragment; assay: Western blot analysis of 12 kDa ApoE fragment production in rat hippocampal neurons expressing full-length human ApoE4; assay type: cell-based; settings: rat hippocampal neurons infected with AAV-DJ full-length human ApoE4; treated at 11 DIV, collected at 14 DIV; concentration dependent; FIG. 14A
Procedure: (§1) Cell culture: The dissected hippocampi from fetuses obtained on embryonic day (E) 18 from timed pregnant Wistar rats (Charles River Laboratories) were digested using trypsinization and mechanical dissociation. The dissociated neurons were seeded at 1.0×10^5 cells/well in 24-well plate (Falcon). Infection of AAV-DJ with full-length human ApoE4 was performed at 7 days in vitro (DIV). 4-{4-[2-(3-methyl-4-oxo-3,4-dihydro-phthalazin-1-yl)-acetylamido]-benzyl}-piperazine-1-carboxylic acid tert-butyl ester (hereinafter also referred to as PH-002) (Merck) was treated at 4 days after infection (11 DIV). Sample collection for western blot and cytotoxicity analysis was performed at 7 days after infection (14 DIV).
Western blot analysis: Cells were lysed by RIPA buffer (50 mM Tris-HCl pH 7.6, 5 mM EDTA, 1 mM EGTA, 1% NP40, 0.25% sodium deoxycholate, 0.1 M NaCl, 0.5 mM PMSF) containing complete (EDTA-free) protease inhibitor cocktail (Roche) and PhosSTOP protein phosphatase inhibitor (Sigma), and sonicated. Sample Buffer Solution with Reducing Reagent (6×) (Nacalai Tesque) was added before SDS-PAGE. For SDS-PAGE, XV PANTERA MP Gel (DRC) 15% was used. For transfer, Trans-Blot Turbo (BIO-RAD) was used. For immunoblotting, iBind Western Systems (ThermoFisher Scientific) was used together with anti-ApoE PA5-27088 antibody (ThermoFisher Scientific). For detection, Fusion FX7 (Vilber Lourmat) was used.

rat hippocampal neurons = assay: CytoTox-Glo Cytotoxicity Assay of treated rat hippocampal neurons; assay type: cell-based; settings: conditioned medium of treated rat hippocampal neurons, 14 DIV; FIG. 14B
Procedure: as §1
Cytotoxicity analysis: Cytotoxicity of treated compound was evaluated by CytoTox-GIo™ Cytotoxicity Assay (Promega). In brief, 50 uL of conditioned medium and 50 uL of prepared CytoTox-GIo™ Cytotoxicity Assay reagent were mixed in 96-well white-walled plate (Sumitomo Bakelite). After incubation at room temperature for 15 min, luminescence was measured by SpectraMax iD5 (Molecular Devices).

[2] = literature, Chang et al.; cited from earlier work
Neuro2A cells = assay: Mitochondrial respiration measurement (spare respiratory capacity) in vector-transfected Neuro2A cells; assay type: cell-based; settings: Neuro2A cells expressing the fragment; FCCP respiration minus basal respiration; FIG. 13A
Procedure: Cell culture: Neuro2A cells (ATCC) were seeded at 5.0×10^4 cells/well in a 24 well plate (Falcon) and cultured in D-MEM High Glucose (WAKO) containing 10% fetal bovine serum. Transfection of pAAV-CMV vectors encoding human ApoE4 (full-length) or the identified ApoE fragments (198-299, 199-299, 200-299) was done using Lipofectamine LTX and Plus Reagent (Invitrogen) on 1 day after seeding. 2 days later, vector-transfected cells were collected for Western blot analysis or seeded again at 2.0×10^4 cells/well in a Seahorse XF96 cell culture microplate (Agilent Technologies) 4 hours before mitochondrial respiration measurement.
(§2) Mitochondrial respiration measurement: Real-time measurement of oxygen consumption rates (OCR) was performed using an Extracellular Flux Analyzer XFe96 (Agilent Technologies). Before measurement, the culture medium was replaced by 37° C. pre-warmed XF Base Medium (Agilent Technologies) containing 10 mM sodium pyruvate (Sigma), 10 mM D-glucose (Sigma), 2 mM glutamine (Sigma). The pH of the measurement medium was adjusted to 7.4. The culture plates were incubated at 37° C. for 60 min prior to the assay. For analysis of mitochondrial function, XF Cell Mito Stress Test Kit (Agilent Technologies) was used. Following measurement of basal OCR, mitochondrial complex inhibitors were injected sequentially into each cell. The inhibitors were used at the following concentrations: oligomycin 1 μM; carbonyl cyanide 4-(trifluoromethoxy)phenylhydrazone (FCCP) 0.25 μM for Neuro2A cells, 2 μM for rat hippocampal neurons; rotenone/antimycin A 0.5 μM. OCR values were automatically calculated, recorded and plotted by the XFe96 software. Spare respiratory capacity was measured as (FCCP respiration—basal respiration).

[3] = system: rat primary hippocampal neurons; assay: Mitochondrial respiration measurement (spare respiratory capacity) in AAV6-infected rat hippocampal neurons; assay type: cell-based; settings: 7 days after AAV6 infection (14 DIV), FIG. 13B
Procedure: For assays using rat hippocampal neurons, the dissected hippocampi from fetuses obtained on embryonic day (E) 18 from timed pregnant Wistar rats (Charles River Laboratories) were digested using trypsinization and mechanical dissociation. The dissociated neurons were seeded at 1.5×10^4 cells/well in Seahorse XF96 cell culture microplate (Agilent Technologies) for mitochondrial respiration measurement or 1.0×10^5 cells/well in 24-well plate (Falcon) for Western blot analysis. Infection of AAV6 with full-length human ApoE4 or identified ApoE fragments (198-299, 199-299, 200-299) was performed at 7 days in vitro (DIV). Measurement of mitochondrial respiration or sample collection for Western blot analysis was performed at 7 days after infection (14 DIV).
as §2

Aβ = settings: literature, Pillot et al.; artificially-generated fragment; cited from earlier work

Molecule	spare respiratory capacity (Neuro2A cells)	spare respiratory capacity [3]	also measured
Cn1nc(CC(=O)Nc2ccc(CN3CCN(C(=O)OC(C)(C)C)CC3)cc2)c2ccccc2c1=O [PH-002, 4-{4-[2-(3-methyl-4-oxo-3,4-dihydro-phthalazin-1-yl)-acetylamido]-benzyl}-piperazine-1-carboxylic acid tert-butyl ester]			amount of neurotoxic 12 kDa ApoE fragment [1]: reduction in the amount of neurotoxic 12 kDa ApoE fragment; cytotoxicity (rat hippocampal neurons): no cytotoxicity
ApoE4(1-299): full-length ApoE4			mitochondrial dysfunction and neurotoxicity [2]: did not bring about these effects
B1	reduction in spare respiratory capacity	reduction in spare respiratory capacity	
B2	reduction in spare respiratory capacity	reduction in spare respiratory capacity	
B3	reduction in spare respiratory capacity	reduction in spare respiratory capacity	inhibition of the fusogenic properties of Aβ (Aβ): able to inhibit the fusogenic properties of Aβ
